Test results taken from patent US20190071490A1 (BETH ISRAEL DEACONESS MEDICAL CENTER, published 2019).
Residue numbers refer to the chain shown, from its start. In names and notes the source's numbering stands. Ends that are not written are not given here.

T1: human α-CGRP 1-37 (WT) (human, C-terminal amide; N-terminal biotin when captured on the SA chip; 125I-labelled in the radioligand assay)
T1 construct: also called α-human
T1 peptide: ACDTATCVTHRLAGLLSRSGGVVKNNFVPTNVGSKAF

T2: rat α-CGRP (1-37) (rat, C-terminal amide; N-terminal biotin when captured on the SA chip)
T2 construct: also called rat α (1-37); α-rat
T2 peptide: T1 peptide with A1S, D3N, N25D, K35E

B1: G1 variant M65 Fab (Fab, V domains shown)
VH: EVQLVESGGGLVQPGGSLRLSCAASGFTFSNYWISWVRQAPGKGLEWVAEIRSKSDCSATHYAEAVKGRFTISRDNAKNSLYLQMNSLRAEDTAVYYCTVYFDYGLAIQNYWGQGTLVTVSS
VL: EIVLTQSPATLSLSPGERATLSCKASKNVGTYVSWYQQKPGQAPRLLIYAASNRYIGIPARFSGSGSGTDFTLTISSLEPEDFAVYYCSQSYNYPYTFGQGTKLEIK
notes: Fab; constant domains as m1
B2: G1 variant M66 Fab (Fab, V domains shown)
VH: B1 VH with C57E
VL: B1 VL with A50G
notes: Fab; constant domains as m1; printed L561 read as L56I
B3: G1 variant M81 Fab (Fab, V domains shown)
VH: B1 VH with C57N, S58E
VL: B1 VL with G30S, A50G, I56S
notes: Fab; constant domains as m1
B4: G1 variant M84 Fab (Fab, V domains shown)
VH: B1 VH with K54N, C57N
VL: B1 VL with G30V, A50G, A51H, I56T
notes: Fab; constant domains as m1
B5: G1 variant M71 Fab (Fab, V domains shown)
VH: B1 VH with C57Y
VL: B1 VL with A50G
notes: as for B2
B6: G1 variant M83 Fab (Fab, V domains shown)
VH: B1 VH with C57N, S58M, H61F
VL: B1 VL with G30V, A50G, A51H, I56T
notes: Fab; constant domains as m1
B7: G1 variant M80 Fab (Fab, V domains shown)
VH: B1 VH with C57N, S58V
VL: B1 VL with G30S, A50G
notes: as for B2
B8: G1 variant M79 Fab (Fab, V domains shown)
VH: B1 VH with C57P
VL: B1 VL with G30S, I56T
notes: Fab; constant domains as m1
B9: G1 variant M67 Fab (Fab, V domains shown)
VH: B1 VH with C57F
VL: B1 VL with A50G
notes: as for B2
B10: G1 variant M77 Fab (Fab, V domains shown)
VH: B1 VH with C57D
VL: B1 VL with G30S, I56T
notes: Fab; constant domains as m1
B11: G1 variant M82 Fab (Fab, V domains shown)
VH: B1 VH with K54E, C57N
VL: B1 VL with G30V, A50G, A51H, I56T
notes: Fab; constant domains as m1
B12: G1 variant M78 Fab (Fab, V domains shown)
VH: B1 VH with C57N, S58T
VL: B1 VL with G30S, I56T
notes: Fab; constant domains as m1
B13: G1 variant M72 Fab (Fab, V domains shown)
VH: B1 VH with C57A
VL: B1 VL with A50G, I56S
notes: Fab; constant domains as m1
B14: G1 variant M75 Fab (Fab, V domains shown)
VH: B1 VH with C57V
VL: B1 VL with A50G, I56S
notes: Fab; constant domains as m1
B15: G1 variant M70 Fab (Fab, V domains shown)
VH: B1 VH with C57S
VL: B1 VL with A50G
notes: as for B2
B16: G1 variant M68 Fab (Fab, V domains shown)
VH: B1 VH with C57N, S58D, E64D
VL: B1 VL with A50G
notes: as for B2
B17: G1 variant M74 Fab (Fab, V domains shown)
VH: B1 VH with C57S
VL: B1 VL with A50G, I56S
notes: Fab; constant domains as m1
B18: G1 variant M69 Fab (Fab, V domains shown)
VH: B1 VH with C57N, S58E
VL: B1 VL with A50G
notes: as for B2
B19: G1 variant M73 Fab (Fab, V domains shown)
VH: B1 VH with C57N, S58Y, E64D
VL: B1 VL with A50G, I56S
notes: Fab; constant domains as m1
B20: G1 variant M76 Fab (Fab, V domains shown)
VH: B1 VH with K54E, C57G
VL: B1 VL with G30S, I56T
notes: Fab; constant domains as m1
B21: human α-CGRP 19-37-COOH (peptide)
peptide: SGGVVKNNFVPTNVGSKAF-OH
notes: also called 19-37 (not amidated at the C-terminus)
B22: Human adrenomedullin (1-52) (peptide)
peptide: YRQSMNNFQGLRSFGCRFGTCTVQKLAHQIYQFTDKDKDNVAPRSKISPQGY-NH2
modifications: ends and bridges not checked

Molecular target: T1, human α-CGRP 1-37 (WT)
Assay: Biacore, 37°C, Fab over CGRP on SA chip
Outline: (§1)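 Fab analyte flowed over N-biotinylated CGRP captured at low density on a streptavidin chip in HBS-EP (pH 7.4), 1-min injections at 100 μL/min, at least 10 min dissociation.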

Binder	Kd	koff
B1	5.02 nM	0.000803 s⁻¹
B2	3.25 nM	0.00052 s⁻¹
B3	3.06 nM	0.00049 s⁻¹
B4	6.75 nM	0.00108 s⁻¹
B5	8 nM	0.00128 s⁻¹
B6	5.83 nM	0.000933 s⁻¹
B7	13.1 nM	0.00209 s⁻¹
B8	8.06 nM	0.00129 s⁻¹
B9	5.13 nM	0.00082 s⁻¹
B10	2.98 nM	0.000477 s⁻¹
B11	5.48 nM	0.000877 s⁻¹
B12	8.19 nM	0.00131 s⁻¹
B13	2.5 nM	0.0004 s⁻¹
B14	7.25 nM	0.00116 s⁻¹
B15	3.49 nM	0.000559 s⁻¹
B16	2.68 nM	0.000428 s⁻¹
B17	3.73 nM	0.000597 s⁻¹
B18	4.58 nM	0.000733 s⁻¹
B19	1.59 nM	0.000255 s⁻¹
B20	2.28 nM	0.000364 s⁻¹

Molecular target: T2, rat α-CGRP (1-37)
Assay: Biacore, 37°C, Fab over CGRP on SA chip
Outline: as §1

Binder	Kd	koff	binding result
B1	226 nM	0.00407 s⁻¹	
B2	284 nM	0.00511 s⁻¹	
B3	238 nM	0.00429 s⁻¹	
B4	978 nM	0.0176 s⁻¹	
B5	118 nM	0.00212 s⁻¹	
B6			no binding
B7	5520 nM	0.0993 s⁻¹	
B8	10600 nM	0.19 s⁻¹	
B9	95 nM	0.00171 s⁻¹	
B10	794 nM	0.0143 s⁻¹	
B11	388 nM	0.00699 s⁻¹	
B12	9280 nM	0.167 s⁻¹	
B13	219 nM	0.00395 s⁻¹	
B14	1040 nM	0.0187 s⁻¹	
B15	337 nM	0.00607 s⁻¹	
B16	376 nM	0.00676 s⁻¹	
B17	335 nM	0.00603 s⁻¹	
B18	101 nM	0.00181 s⁻¹	
B19	167 nM	0.003 s⁻¹	
B20	64.4 nM	0.00116 s⁻¹	

What follows are binders tested against antibody G1 Fab fragment (assay: Biacore competition: G1 Fab (50 nM) pre-incubated 1 h with 10 µM competing peptide, then flowed over N-biotinylated human α-CGRP on SA chip; percent of binding to chip-bound human α-CGRP blocked).
Description: (§2) Y axis represents percentage of binding blocked by the presence of the competing peptide compared with the binding in the absence of the competing peptide.
(§3) All these peptides are amidated at the C-terminus.
Target sequence in this assay (VH, as listed by the source, chain 1 of 2): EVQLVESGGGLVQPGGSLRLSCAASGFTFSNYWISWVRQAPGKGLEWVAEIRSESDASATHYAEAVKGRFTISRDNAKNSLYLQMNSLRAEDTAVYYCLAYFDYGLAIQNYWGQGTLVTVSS
Target sequence in this assay (VL, as listed by the source, chain 2 of 2): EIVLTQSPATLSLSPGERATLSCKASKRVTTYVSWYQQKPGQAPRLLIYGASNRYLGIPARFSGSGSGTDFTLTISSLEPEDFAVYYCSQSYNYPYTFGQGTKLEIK

Binder	% Binding Blocked
B21	83.3%
SGGVVKNNFVPTNVGSKAA-NH2 (the entry already carries F37A) [human α-CGRP F37A (19-37)]	91.7%

These binders were tested against antibody G1 Fab fragment (assay: Biacore competition: G1 Fab (50 nM) pre-incubated with competing peptide, flowed over human α-CGRP on SA chip).
Description: as §2, §3

Binder	binding result
B22	no binding (tested: 10 µM)
CGNLSTCMLGTYTQDFNKFHTFPQTAIGVGAP-NH2 (ends and bridges not checked) [Human calcitonin (1-32)]	no binding (tested: 10 µM)
ACDTATCVTHRLAGLLSRS-OH (ends and bridges not checked) [human α-CGRP 1-19-COOH]	no binding (tested: 10 µM)
ACDTATCVTHRLA-OH (ends and bridges not checked) [human α-CGRP 1-13-COOH]	no binding (tested: 10 µM)
KCNTATCATQRLANFLVHSSNNFGAILSSTNVGSNTY-NH2 (ends and bridges not checked) [Human amylin (1-37)]	no binding (tested: 10 µM)
